According to US20090004190A1, “Rage Fusion Proteins And Methods Of Use” (priority 2006, published 2009):

Experiments:
S100b (S100) = molecular target: T1, S100b (S100) (Homo sapiens, UniProt P04271); assay: In vitro ligand binding (ELISA) to immobilized S100b; conditions: ligand 5 micrograms per well; FIG. 7
T1 sequence (P04271 1-92): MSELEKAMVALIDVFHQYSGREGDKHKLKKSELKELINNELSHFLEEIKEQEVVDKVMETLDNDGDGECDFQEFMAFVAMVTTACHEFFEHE
Experimental: For example, the RAGE fusion protein may be used in a binding assay to identify potential RAGE ligands. In one example embodiment of such a binding assay, a known RAGE ligand may coated onto a solid substrate (e.g., Maxisorb plates) at a concentration of about 5 micrograms per well, where each well contains a total volume of about 100 microliters (μL). The plates may be incubated at 4° C. overnight to allow the ligand to absorb. Alternatively, shorter incubation periods at higher temperature (e.g., room temperature) may be used. […] The RAGE fusion protein bound to the immobilized ligand may be detected in a variety of ways. […] The bound complex may be detected by adding the alkaline phosphatase substrate, para-nitrophenylphosphate (PNPP), and measuring conversion of PNPP to para-nitrophenol (PNP) as an increase in absorbance at 405 nm. […] In the absence of ligand (i.e., coating with only BSA) there was no increase in absorbance. […] Binding was detected by the addition of an immunodetection complex containing a monoclonal mouse anti-human IgG1 diluted 1:11,000 to a final assay concentration (FAC) of 21 ng/100 μL, a biotinylated goat anti-mouse IgG diluted 1:500, to a FAC of […], and an avidin-linked alkaline phosphatase. […]

[1] = Pharmacokinetic profile of TTP-4000 after IV injection (plasma ELISA); assay type: in vivo; conditions: monkeys, single IV bolus 5 mg/kg, after ligands saturated, FIG. 11
Experimental: Blood samples (approximately 1.0 mL) were collected at pre-dose (i.e., prior to injection of the TTP4000), or at 0.083, 0.25, 0.5, 2, 4, 8, 12, 24, 48, 72, 96, 120, 168, 240, 288, and 336 hours post dose into tubes containing (lithium heparin). Following collection, the tubes were placed on wet ice (maximum 30 minutes) until centrifugation under refrigeration (at 2 to 8° C.) at 1500×g for 15 minutes. Each harvested plasma sample was then stored frozen (−70° C.±10° C.) until assayed for RAGE polypeptide using an ELISA at various time-points following the injection, as described in Example 6.
Initially, 50 uL of the RAGE specific monoclonal antibody 1HB1011 at a concentration of 10 ug/mL in 1×PBS pH 7.3 is coated on plates via overnight incubation. When ready for use, plates are washed three times with 300 uL of 1× Imidazole-Tween wash buffer and blocked with 1% BSA. […] The samples are allowed to incubate at room temperature for one hour. After incubation, the plates are plates are washed three times. A Goat Anti-human IgG11 (Sigma A3312) […] conjugate in 1×PBS with 1% BSA is added and allowed to incubate at room temperature for 1 hour. The plates are washed three times. Color was elucidated with paranitrophenylphosphate.

B1: TTP-4000: four domain RAGE fusion protein: human RAGE V and C1 domains with interdomain linkers (to residue 251) fused to human IgG1 CH2 and CH3; SEQ ID NO: 34/56 (protein, listed as Homo sapiens)
chain: QNITARIGEPLVLKCKGAPKKPPQRLEWKLNTGRTEAWKVLSPQGGGPWDSVARVLPNGSLFLPAVGIQDEGIFRCQAMNRNGKETKSNYRVRVYQIPGKPEIVDSASELTAGVPNKVGTCVSEGSYPAGTLSWHLDGKPLVPNEKGVSVKEQTRRHPETGLFTLQSELMVTPARGGDPRPTFSCSFSPGLPRHRALRTAPIQPRVWEPVPLEEVQLVVEPEGGAVAPPSVFLFPPKPKDTLMISRTPEVTCVVVDVSHEDPEVKFNWYVDGVEVHNAKTKPREEQYNSTYRVVSVLTVLHQDWLNGKEYKCKVSNKALPAPIEKTISKAKGQPREPQVYTLPPSRDELTKNQVSLTCLVKGFYPSDIAVEWESNGQPENNYKTTPPVLDSDGSFFLYSKLTVDKSRWQQGNVFSCSVMHEALHNHYTQKSLSLSPGK
binding to immobilized S100b (absorbance at 405 nm) (S100b (S100)): specifically interact
terminal half-life [1]: greater than 300 hours
